Patent US20260374873 (published 2026)

What was measured:
human B7-H2 = biological target: T1, human B7-H2 (human, UniProt O75144); assay: ELISA
T1 chain: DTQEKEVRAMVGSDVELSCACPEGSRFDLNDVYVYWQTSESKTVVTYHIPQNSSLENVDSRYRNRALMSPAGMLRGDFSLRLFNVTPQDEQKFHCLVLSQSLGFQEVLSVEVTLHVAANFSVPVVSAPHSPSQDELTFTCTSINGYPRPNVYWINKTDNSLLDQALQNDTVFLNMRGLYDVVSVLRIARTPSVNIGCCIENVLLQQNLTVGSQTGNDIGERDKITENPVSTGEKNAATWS

rat B7-H3 = biological target: T2, rat B7-H3 (rat, UniProt Q7TPB4); assay: BLI
T2 chain: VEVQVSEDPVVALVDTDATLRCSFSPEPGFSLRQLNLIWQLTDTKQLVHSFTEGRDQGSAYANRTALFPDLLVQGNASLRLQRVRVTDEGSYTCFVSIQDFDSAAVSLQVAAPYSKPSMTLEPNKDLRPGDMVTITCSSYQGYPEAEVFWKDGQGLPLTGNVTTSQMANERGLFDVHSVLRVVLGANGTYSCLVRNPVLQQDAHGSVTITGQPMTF

rat B7-H3 on CHO-S = biological target: T3, rat B7-H3 on CHO-S (rat, UniProt Q7TPB4); assay: FACS
T3 chain: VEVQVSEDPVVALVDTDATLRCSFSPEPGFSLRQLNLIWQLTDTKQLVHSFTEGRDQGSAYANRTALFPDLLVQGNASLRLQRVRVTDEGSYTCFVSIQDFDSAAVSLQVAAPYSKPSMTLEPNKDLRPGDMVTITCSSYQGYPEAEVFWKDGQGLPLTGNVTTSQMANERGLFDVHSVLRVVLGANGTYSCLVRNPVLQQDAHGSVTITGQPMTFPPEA

human B7-1 = biological target: T4, human B7-1 (human, UniProt P33681); assay: ELISA
T4 chain: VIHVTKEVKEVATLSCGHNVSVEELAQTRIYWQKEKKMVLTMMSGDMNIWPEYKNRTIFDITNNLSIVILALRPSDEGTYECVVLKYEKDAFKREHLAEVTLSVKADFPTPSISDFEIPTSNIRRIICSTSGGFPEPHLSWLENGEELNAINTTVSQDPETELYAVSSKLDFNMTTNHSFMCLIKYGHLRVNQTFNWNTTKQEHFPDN

human B7-2 = biological target: T5, human B7-2 (human, UniProt P42081); assay: ELISA
T5 chain: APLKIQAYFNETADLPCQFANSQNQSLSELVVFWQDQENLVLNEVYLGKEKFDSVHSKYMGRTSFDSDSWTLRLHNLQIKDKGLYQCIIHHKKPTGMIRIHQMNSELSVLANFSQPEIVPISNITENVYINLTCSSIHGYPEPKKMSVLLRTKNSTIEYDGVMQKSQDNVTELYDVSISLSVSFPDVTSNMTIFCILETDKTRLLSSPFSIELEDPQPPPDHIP

human B7-H4 = biological target: T6, human B7-H4 (human, UniProt Q7Z7D3); assay: ELISA
T6 chain: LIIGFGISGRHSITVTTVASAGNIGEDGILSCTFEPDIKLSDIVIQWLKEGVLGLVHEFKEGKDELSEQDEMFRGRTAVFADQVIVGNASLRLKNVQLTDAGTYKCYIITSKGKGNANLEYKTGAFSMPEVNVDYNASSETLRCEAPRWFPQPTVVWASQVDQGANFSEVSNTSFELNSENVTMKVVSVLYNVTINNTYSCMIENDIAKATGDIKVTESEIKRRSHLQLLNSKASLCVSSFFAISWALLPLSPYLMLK

human B7-H1 = human B7-H1 (human, UniProt Q9NZQ7); assay: ELISA
human B7-H1, sequence (Q9NZQ7 19-238): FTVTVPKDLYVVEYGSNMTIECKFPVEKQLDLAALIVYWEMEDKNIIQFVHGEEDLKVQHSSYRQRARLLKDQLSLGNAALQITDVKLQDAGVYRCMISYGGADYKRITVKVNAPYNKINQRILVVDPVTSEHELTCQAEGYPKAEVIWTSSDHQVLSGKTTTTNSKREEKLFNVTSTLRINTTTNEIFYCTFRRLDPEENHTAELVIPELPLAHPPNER

binding result (human B7-H2): no binding | binding result (rat B7-H3): no binding | binding result (rat B7-H3 on CHO-S): no binding | binding result (human B7-1): no binding | binding result (human B7-2): no binding | binding result (human B7-H4): no binding | binding result (human B7-H1): no binding
B1: 2#8890 (antibody, V domains shown)
VH: QVQLQESGPGLVQPSGTLSLTCAVSGGSDSSTNWWTWVRQSPGQGLEWIGEISPIGFTSYSPSLRSRVTISVDKSKTQFSLKLSSVTAADTAVYYCARDRLYFAFWGQGTLVTVSS
VL: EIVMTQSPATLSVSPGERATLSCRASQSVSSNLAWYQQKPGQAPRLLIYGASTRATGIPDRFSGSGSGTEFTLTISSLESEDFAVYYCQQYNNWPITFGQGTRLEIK
